Publication PMC1751550

Target: full length Brn-3b GST fusion protein (UniProt Q63934)
Experiment: pull-down

Chain of UniProt Q63934 (Q63934 whole entry, the tested form may be a part): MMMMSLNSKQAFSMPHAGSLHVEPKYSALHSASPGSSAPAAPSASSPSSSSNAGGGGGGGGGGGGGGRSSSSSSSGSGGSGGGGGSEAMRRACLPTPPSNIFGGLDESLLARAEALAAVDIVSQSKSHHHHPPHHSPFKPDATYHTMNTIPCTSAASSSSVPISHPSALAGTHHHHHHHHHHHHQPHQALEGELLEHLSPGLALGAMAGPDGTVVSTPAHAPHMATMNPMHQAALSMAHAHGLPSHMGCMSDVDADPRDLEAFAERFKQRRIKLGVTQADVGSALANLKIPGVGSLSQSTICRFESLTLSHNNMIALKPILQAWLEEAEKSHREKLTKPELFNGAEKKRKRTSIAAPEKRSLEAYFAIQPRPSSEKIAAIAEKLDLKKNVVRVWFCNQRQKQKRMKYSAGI

percent of input retained: 15.2 % of input
Substance: in vitro translated estrogen receptor (from UniProt P03372 1-595)
